{"source": "patent US6218168A", "about": "“Process for preparing O-acetylserine, L-cysteine and L-cysteine-related products” (Consortium fur elektrochemische Inudstrie GmbH, priority 1995, dated 2001)", "molecules": {"B1": {"name": "cysEXI: double mutant Thr167->Ala167, Gly245->Ser245 (protein, UniProt P0A9D4 1-273, looked up, variant T167A G245S)", "Serine acetyltransferase": "MSCEELEIVWNNIKAEARTLADCEPMLASFYHATLLKHENLGSALSYMLANKLSSPIMPAIAIREVVEEAYAADPEMIASAACDIQAVRTRDPAVDKYSTPLLYLKGFHALQAYRIGHWLWNQGRRALAIFLQNQVSVTFQVDIHPAAKIGRGIMLDHATGIVVGEAAVIENDVSILQSVTLGGTGKSGGDRHPKIREGVMIGAGAKILGNIEVGRGAKIGAGSVVLQPVPPHTTAAGVPARIVSKPDSDKPSMDMDQHFNGINHTFEYGDGI"}}, "key": {"serine acetyltransferase": {"target": "serine acetyltransferase", "assay": "Serine acetyltransferase enzyme activity test with and without L-cysteine (inhibitor constant Ki, specific activity)", "format": "biochemical, E. coli", "settings": "for Ki: inhibitor L-cysteine", "summary_of_the_method": "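Spectrophotometric test with L-serine and acetyl-CoA, reaction started by enzyme, following absorbance decrease at 232 nm from thioester cleavage. Activity measured with and without varying L-cysteine to derive Ki; enzyme from S30 extracts (30,000 g, 4° C, 20 min) of E. coli strains.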"}, "[1]": {"test_system": "Corynebacterium glutamicum ATCC21851", "assay": "Cysteine production by fermentation using corynebacteria with pWST1-cysE plasmids", "format": "cell-based", "settings": "allele on pWST1 plasmid; compared with cysEIV, cysEX, cysEXIV", "from_the_text": "The feedback-resistant cysE alleles, cysEIV, cysEX, cysEXI and cysEXIV (cf. Tab. 2 in Example 1), were cleaved out of their corresponding plasmids using the restriction enzymes BamHI and EcoRI (from Boehringer Mannheim) and each respective 1.15 kb-sized DNA fragment was purified through an agarose gel and isolated. The respective DNA fragment was rendered blunt-ended using the Klenow fragment of E. coli DNA polymerase I (from Boehringer Mannheim). The vector pWST1 was hydrolyzed with the restriction enzyme Smal (from Boehringer Mannheim) and ligated to the blunt-ended DNA fragment using T4 DNA ligase. The vector pWST1 is an E. coli/Corynebacterium shuttle vector and can replicate both in E. coli and in corynebacteria. The corynebacterial replicon of this vector originates from the Corynebacterium glutamicum strain ATCC 19223. The preparation of vector pWST1 is described in U.S. Pat. No. 4,965,197. The ligation mixture was used to transform the mutant JM15, which is auxotrophic for cysteine. The complementing plasmids were designated pWST1-cysEIV, pWST1-cysEX, pWST1-cysEXI and pWST1-cysEXIV in accordance with their inserted cysE alleles.\nThe pWST1-cysE plasmids were used to transform the Corynebacterium glutamicum ATCC21851. The transformation was carried out by electroporation using the technique described in detail in Liebl, W. et al., 1989, FEMS Microbiol. Letters, 65, 299-304. […]"}, "JM15attλ::cysE strains": {"test_system": "JM15attλ::cysE strains", "assay": "Cysteine production in 1 L fermenter, chromosomally encoded cysE alleles", "format": "cell-based, E. coli", "settings": "single chromosomal copy", "procedure": "For the purpose of being integrated into the chromosomal attachment site (attλ), the cysE alleles cysEIV, cysEX and cysEXI were cloned into the plasmid pRS551 (Simons et al., 1987, Gene 53: 85-96). For this, each cysE allele was amplified by PCR from the corresponding cysE plasmid. The oligonucleotides which were used, i.e. cysE-fwl and cysE-revl, are described in Example 1. The amplification was carried out as described in Example 3. The resulting fragments were cleaved with EcoRI/BamHI, purified through an agarose gel and ligated into vector pRS551 which had been cleaved with EcoRI and BamHI. This afforded the vector pRS551-based recombinant plasmids pRScysEIV, X and XI.\nA heterogeneous lambda lysate, which contained recombinant cysE allele-carrying λRS45 derivatives in addition to λRS45 phages, was produced in vivo by homologous recombination by means of preparing a plate lysate on a pRScysE-carrying recA^+ strain (e.g. YMC9, ATCC 3397) using the λRS45 phage (Simons et al., 1987, Gene 53: 85-96).\nThe cysE strain JM15, which was infected with the heterogeneous lambda lysate and subsequently plated on kanamycin-containing (25 mg/L) LB plates, was used for selecting for the recombinant RS45 derivatives. The lysogenic, kanamycin-resistant clones which were obtained were then tested for their ability to grow on minimal medium plates without cysteine. A clone which was in each case cysteine-prototrophic was selected and used for preparing a homogeneous cysE λ lysate (by means of UV induction, Simons et al., 1987, Gene 53: 85-96).\nThe JM15 stain was infected with these homogeneous cysE λ lysates which were obtained in each case. The resulting JM15attλ::cysE strains were cultured as described in Example 6. Instead of tetracycline, the respective media in each case contained 25 mg of kanamycin per L as the selection agent."}}, "data": [{"molecule": "B1", "values": [{"measurement": "Ki", "setting": "serine acetyltransferase; Table 1a, 1 mM L-serine, 0.1 mM acetyl-CoA", "result": 700, "unit": "µM"}, {"measurement": "spec. act.", "setting": "serine acetyltransferase; Table 1a, serine acetyltransferase activity", "result": 0.117, "unit": "µmol/min/mg"}, {"measurement": "Ki", "setting": "serine acetyltransferase; Table 2, alleles from chemical mutagenesis", "result": 700, "unit": "µM"}, {"measurement": "cysteine yields", "setting": "[1]", "result": "highest cysteine yields"}, {"measurement": "yields of cysteine", "setting": "JM15attλ::cysE strains", "result": 2.1, "unit": "g/L"}]}]}
